Results published in patent US20220356221A1 (ASKGENE PHARMA, published 2022).

Molecular target: human IL-12 receptor on HEK-Blue IL-12 reporter cells (human, UniProt P42701 24-662; Q99665 24-862)
Assay: cell-based or functional assay

Chain of human IL-12 receptor on HEK-Blue IL-12 reporter cells (Q99665 24-862, chain 2 of 2, other chains not shown): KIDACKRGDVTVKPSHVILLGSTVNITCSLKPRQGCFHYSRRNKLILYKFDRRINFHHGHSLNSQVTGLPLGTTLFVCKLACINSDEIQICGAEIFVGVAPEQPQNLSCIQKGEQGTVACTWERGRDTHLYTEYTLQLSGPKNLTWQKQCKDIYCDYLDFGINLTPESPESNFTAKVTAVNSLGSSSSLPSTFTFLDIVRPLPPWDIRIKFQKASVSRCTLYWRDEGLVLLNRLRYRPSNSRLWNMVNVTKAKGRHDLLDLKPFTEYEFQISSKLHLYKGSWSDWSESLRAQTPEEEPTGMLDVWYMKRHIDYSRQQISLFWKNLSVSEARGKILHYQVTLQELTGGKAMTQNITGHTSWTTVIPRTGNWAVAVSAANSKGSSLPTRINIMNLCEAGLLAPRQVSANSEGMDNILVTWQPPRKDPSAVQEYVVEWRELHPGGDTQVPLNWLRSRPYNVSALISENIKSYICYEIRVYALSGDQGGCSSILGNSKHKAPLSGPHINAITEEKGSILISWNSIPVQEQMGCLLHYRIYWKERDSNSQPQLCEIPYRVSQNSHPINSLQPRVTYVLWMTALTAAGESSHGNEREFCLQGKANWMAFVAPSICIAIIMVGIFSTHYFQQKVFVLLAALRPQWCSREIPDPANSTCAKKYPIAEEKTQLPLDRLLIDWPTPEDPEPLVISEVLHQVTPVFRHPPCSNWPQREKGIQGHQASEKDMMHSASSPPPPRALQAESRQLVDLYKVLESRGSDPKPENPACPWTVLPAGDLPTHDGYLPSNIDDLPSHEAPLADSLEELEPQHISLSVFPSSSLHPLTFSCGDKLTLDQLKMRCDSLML

B1: IL-12 prodrug JR3.105.5 after protease treatment (activated) (Fc fusion)
chain: DKTHTCPPCPAPELLGGPSVFLFPPKPKDTLMISRTPEVTCVVVDVSHEDPEVKFNWYVDGVEVHNAKTKPREEQYASTYRVVSVLTVLHQDWLNGKEYKCKVSNKALPAPIEKTISKAKGQPREPQVYTLPPCRDELTKNQVSLWCLVKGFYPSDIAVEWESNGQPENNYKTTPPVLDSDGSFFLYSKLTVDKSRWQQGNVFSCSVMHEALHNHYTQKSLSLSPGAGGGGSGGGGSGGGGSIWELKKDVYVVELDWYPDAPGEMVVLTCDTPEEDGITWTLDQSSEVLGSGKTLTIQVKEFGDAGQYTCHKGGEVLSHSLLLLHKKEDGIWSTDILKDQKEPKNKTFLRCEAKNYSGRFTCWWLTTISTDLTFSVKSSRGSSDPQGVTCGAATLSAERVRGDNKEYEYSVECQEDSACPAAEESLPIEVMVDAVHKLKYENYTSSFFIRDIIKPDPPKNLQLKPLKNSRQVEVSWEYPDTWSTPHSYFSLTFCVQVQGKSKREKKDRVFTDKTSATVICRKNASISVRAQDRYYSSSWSEWASVPCSGGGGSGGGGSGGGGSRNLPVATPDPGMFPCLHHSQNLLRAVSNMLQKARQTLEFYPCTSEEIDHEDITKDKTSTVEACLPLELTKNESCLNSRETSFITNGSCLASRKTSFMMALCLSSIYEDLKMYQVEFKTMNAKLLMDPKRQIFLDQNMLAVIDELMQALNFNSETVPQKSSLEEPDFYKTKIKLCILLHAFRIRAVTIDRVMSYLNAS
- EC50 in the cell-based IL-12 reporter assay (HEK-Blue IL-12, STAT4-inducible SEAP, OD630): ~0.05 nM
- fold activation based on the EC50 values (after protease treatment against prior to it): ~18 fold
